Test results reported in patent US20120100106A1.
Blank lines part the entries; values can stand above or below the binder they belong to. Ends that are not written are not given here. * marks the point of attachment. Dansyl = CN(C)c1cccc2c(S(=O)(=O)*)cccc12

Experiments:
collagen [1] = assay: SPR (Biacore 2000), collagen immobilised on CM-3 chip, peptide in solution 100 µM to 1.5 µM, from on-off kinetics
collagen [2] = assay: fluorescence plate binding assay, collagen coated on 96-well high-binding plate, equilibrium fit

Kd (collagen [1]): 1200 nM
B1: … (SILY) peptide (peptide)
peptide: RRANAALKAGELYKSILYGC

Kd (collagen [2]): 860 nM
B2: Dansyl-… (peptide)
peptide: Dansyl-GRRANAALKAGELYKSILYGC
